The text below walks through data of PMC6406459, “Hyperoxidation of Peroxiredoxin 6 Induces Alteration from Dimeric to Oligomeric State” (Antioxidants, 2019).

This series deals with the molecule itself. Kind of series: native gel or EMSA; native PAGE, continuous 7.5% polyacrylamide gel, non-reducing and non-denaturing; samples in 50 mM Tris-HCl, 100 mM NaCl pH 7.4; running buffer 30 mM beta-alanine, 20 mM lactic acid pH 3.8, 180 V, 2 h, reverse polarity; markers bovine albumin and horse ferritin.

B1: reduced rat peroxiredoxin 6 (Cys47-SH) (enzyme, UniProt O35244 1-224, looked up)
chain: MPGGLLLGDEAPNFEANTTIGHIRFHDFLGDSWGILFSHPRDFTPVCTTELGRAAKLAPEFAKRNVKLIALSIDSVEDHFAWSKDINAYNGAAPTEKLPFPIIDDKDRDLAILLGMLDPAEKDEKGMPVTARVVFIFGPDKKLKLSILYPATTGRNFDEILRVVDSLQLTASNPVATPVDWKKGESVMVLPTLPEEEAKQLFPKGVFTKELPSGKKYLRYTPQP
notes: Peroxiredoxin 6, rat, UniProtKB O35244, 224 amino acids as in the cDNA, without any vector derived residues; Kept reduced by 1 mM DTT in 50 mM Tris-HCl, 100 mM NaCl pH 7.4; also called reduced Prdx6; rPrdx6; source: reduced with 1 mM DTT; not shown: intein tag, C-terminal, cleaved
Usually stoichiometry N stands for a count of units in the complex or per binding partner. With B1, the “stoichiometry N” value came out at 2.

B2: hyperoxidized rat peroxiredoxin 6 (C47 sulfinic acid or sulfonic acid) (enzyme, UniProt O35244 1-224, looked up)
chain: MPGGLLLGDEAPNFEANTTIGHIRFHDFLGDSWGILFSHPRDFTPVCTTELGRAAKLAPEFAKRNVKLIALSIDSVEDHFAWSKDINAYNGAAPTEKLPFPIIDDKDRDLAILLGMLDPAEKDEKGMPVTARVVFIFGPDKKLKLSILYPATTGRNFDEILRVVDSLQLTASNPVATPVDWKKGESVMVLPTLPEEEAKQLFPKGVFTKELPSGKKYLRYTPQP
modifications: C47 sulfinic acid or sulfonic acid (Cys47-SO2H or Cys47-SO3H)
notes: Peroxiredoxin 6, rat, UniProtKB O35244, 224 amino acids as in the cDNA, without any vector derived residues; Cys47 hyperoxidized by H2O2; Same purified protein as m1, treated with 500 uM H2O2 in 50 mM Tris-HCl, 100 mM NaCl pH 7.4; also called hyperoxidized Prdx6; oxidized Prdx6; source: incubated with 500 uM H2O2 at room temperature for 30 min to 1 h; not shown: intein tag, C-terminal, cleaved
With B2, the binding result was “binds”.
